The series is described as follows: yeast display, Sf9 membrane polyspecificity reagent, FACS + sequencing; frameworks hold sequencing errors. The method in brief: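 Nanobodies from a synthetic yeast display library (Saccharomyces cerevisiae BJ5465), induced 36–48 hours with galactose, were stained 1 hour at 4 °C with 10% biotinylated, detergent-solubilized Sf9 membrane reagent, enriched on streptavidin microbeads, then FACS-sorted. Anti-HA (expression) and streptavidin (reagent binding) fluorescence set low and high (top ~1%) gates. Polyreactivity labels come from the gate of origin. Genes were colony-PCR amplified, MiSeq 2 × 250 sequenced and filtered by CDR length.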
With “QVQLVESGGGLDQAGGSLRLSCAASGFIFPGNAMGWYRQAPGKERELVAAISWRVGRTYYADSVKGRFTISRDNAKNTVYLQMNSLKPEDTAVYYCAVARSSPEYYYWGQGTQVTVSS”, the “polyreactivity (PSR sort gate)” value was “high polyreactivity”.

With “QVQLVESGGGLDQAGGSLRLSCAASGFIFRSYTMGWYRQEPRKEREFVPAITWTGGSTYYADSVKGRFTISRDNAKNTVYLQMNSLKPEDTAVYYCNAANWHYSTAPKPYAFDYWGQGTQVTVSS”, the “polyreactivity (PSR sort gate)” value is reported as “low polyreactivity”.

As to “QVQLVESGGGLDQAGGSLRLSCAASGFIYSSYGMGWYRQAPGKERELDAAISRSGGSTYYADSVKGRFTISRDNAKNTVYLEMNSLKPEDTAVYYCATAYSWRNADWFAYSYDYWGQGTQVTVSS”, the “polyreactivity (PSR sort gate)” value is on record as “low polyreactivity”.

In the case of “QVQLVESGGGLDQAGGSLRLSCAASGFTFGSNAMGWYRQAPGKERELVASITTRGGSTYYADSVKGRFTISRDNANNTVYLQMNSLKPEDTAVYYCAARARYPNWTYYYWGQGTQVTVSS”, the “polyreactivity (PSR sort gate)” value is on record as “high polyreactivity”.

For the sequence “QVQLVESGGGLDQAGGSLRLSCAASGFTFRKNAMGWYRQAPGKERELVAVISYSGGSTYYADSVNGRFTISRDSANNTVYLQMNSQKPEDSAVYYCNAVGWTRYWRIGWSAYYYWGQGTQVTVSS”, the “polyreactivity (PSR sort gate)” value is reported as “high polyreactivity”.

Turning to “QVQLVESGGGLDQAGGSLRLSCAASGFTFRYYAMGWYRQAPRKERELVAAIRRGGTTNYADSVKGRFTISRDNAKNTVYLQMNSLKPEDTAVYYCANYRYGYDYWGQGTQVTVSS”, the “polyreactivity (PSR sort gate)” value is “high polyreactivity”.

With “QVQLVESGGGLDQAGGSLRLSCAASGGIFSVYAMGWYRQAPGKEREFVAAISKSGGRTYYADSVKGRFTISRDTAKKTVYLQMNCLKQVDTAVYYCNADVYPYYRKPWMDYWGQGSQVTVSS”, the “polyreactivity (PSR sort gate)” value is listed as “low polyreactivity”.

For “QVQLVESGGGLDQAGGSLRLSCAASGIIFAANAMGWSRQAPGKERELVAAISKNGGITYYADSVQGRFTISRDNAKNTVDLQRNSLKPEDTAVYYCAARWRQTRSYYYWGQGTQVNVSS”, the “polyreactivity (PSR sort gate)” value is “high polyreactivity”.

Take “QVQLVESGGGLDQAGGSLRLSCAASGIIFGVNVMGWYRQAPGKERELVATITWRGDSTYYADSVKGRFTISRDNAKNTVYLQMNSLKPEDTAVYYCARGARTGVREDDYWGQGTQVTLSS”: the “polyreactivity (PSR sort gate)” value is “low polyreactivity”.

For “QVQLVESGGGLDQAGGSLRLSCAASGIIFKYYAMGWYRQAPGKERELVAAINYSGGRTYYADSVKGRFTISRDNAKNTVYLQMNSLKPEDTAVYYCAKVPAYADRGKFDYWGQGTQVTVSS”, the “polyreactivity (PSR sort gate)” value was “high polyreactivity”.

With “QVQLVESGGGLDQAGGSLRLSCAASGITFFNYAMGWYRQAPGKEREFVAGIDSSGGSTSYADSVKGRFTISRDNAKNTVYLQMNSLKPEDTAVYYCAADRTGSHFDYWGQGTQVTVSS”, the “polyreactivity (PSR sort gate)” value is given as “low polyreactivity”.

For the sequence “QVQLVESGGGLDQAGGSLRLSCAASGITFYGYTMGLYRQAPGKERELVATITRGGSTYYADSVKGRFTISRDNAKNTVYLQMNSLKPEDTAVYYCAAESQYDYGVEYDYWVQGTQVTVSS”, the “polyreactivity (PSR sort gate)” value is “low polyreactivity”.

For the sequence “QVQLVESGGGLDQAGGSLRLSCAASGLIFRPYDMGWYSQAPGKERELVAAISNGDSTNYADSVKGRFTISRDNAKNTDYLEMNSLKPEDTAVYYCNAAIPSWLEYEYWGQGTQVTVSS”, the “polyreactivity (PSR sort gate)” value is “low polyreactivity”.

In the case of “QVQLVESGGGLDQAGGSLRLSCAASGLISYRNAMGWYRQAPGKERELVAAISSDGSTYYADSVKGRFTISRDNAKNSVYLQMNSLKPEDTAVYYCNADVFRKFGSPSAYKSHRYDYWGQGTQVTVSS”, the “polyreactivity (PSR sort gate)” value is “low polyreactivity”.

For the sequence “QVQLVESGGGLDQAGGSLRLSCAASGLTFAYYTMGWSRQEPGKERELVADISRSGGSTYYADSVKGRFTISRDNAKNTVYLQMNSLKPEDTAVYYCAAYRYGSRYGYEYWGQGTQVTVSS”, the “polyreactivity (PSR sort gate)” value is listed as “high polyreactivity”.

Consider “QVQLVESGGGLDQAGGSLRLSCAASGLTFGTYPMGWYRQAPGKETELVAAIRSGGSTNYADSVKGRFTISRDNAKNTVYLQMNSLKPEDTAVYYCNSVTVYYRKYEFWGQGTQVTVSS”, for which the “polyreactivity (PSR sort gate)” value is given as “high polyreactivity”.

For “QVQLVESGGGLDQAGGSLRLSCAASGLTFQLYTMGWYRQAHGKERELVAAISRSGTRTYYADSVKGRFTISLDNAKNTVYLQMNSLKPEDTAVYYCAARTDGYRNNYWGQGTQVTVSS”, the “polyreactivity (PSR sort gate)” value was “high polyreactivity”.

Take “QVQLVESGGGLDQAGGSLRLSCAASGNTFHPYAMGWYRQAPGKERELVAAITKSGGSTYYADSVKGRFTISRDNAKKTVYLQMNSLKPEDTAVYYCNADDGVTEYDYWGQGTQVTVSS”: the “polyreactivity (PSR sort gate)” value was “low polyreactivity”.

In the case of “QVQLVESGGGLDQAGGSLRLSCAASGRIFCQYAMGWYRQAPGKERELVAAMSRSGGSTYYAHSVKGRFTISRDNAKNTVYLQMTSLKPEDTAVYYCAARKASGDPGSAGRPEYYYWGQGNQVTVSS”, the “polyreactivity (PSR sort gate)” value is “high polyreactivity”.

For the sequence “QVQLVESGGGLDQAGGSLRLSCAASGRIIRFYAMAWYRQAPGKERELVAAISSRGGSTYYADSVKGRFTISRDNAKNTVYLQKNSLKPEDTAVYYCAKKTWRDYAYNYWGQGTQVTVSS”, the “polyreactivity (PSR sort gate)” value is “high polyreactivity”.

Turning to “QVQLVESGGGLDQAGGSLRLSCAASGRISGYYDMVWYRQAPGKERELVATITSDGGTNYADSVKGRFTISRDNAKNCVYLQINSLKPEDTAVYYCAAYGWYTKWHFAYGYWGQGTQVTVSS”, the “polyreactivity (PSR sort gate)” value is given as “low polyreactivity”.

Take “QVQLVESGGGLDQAGGSLRLSCAASGRTFNPYVLGWYRQAPGKERELVAVITSSGDSTYYADSVKGRFTISRDNAKNTVYLQMNSLKPEDTAVYYCNADYLYYDYDYWGQGTQVTVSS”: the “polyreactivity (PSR sort gate)” value was “high polyreactivity”.

As for “QVQLVESGGGLDQAGGSLRLSCAASGRTFTGNAMGWYRQAPGKERELVAAISSRGSSTYYADSVKGRFTISRDNAKNTVYLQMNSLKPEDTAVYYCAAVWPRPKYVYESDYWGQGTQVTVSS”, the “polyreactivity (PSR sort gate)” value is reported as “high polyreactivity”.

As for “QVQLVESGGGLDQAGGSLRLSCAASGRTFYRNVMGWYRQAHGKERELVAAISSRGGSTYYADSVKGRFTISRDNAKNTVYLQMNSLKPEDTAVYYCAAYYYRRRYGGKYDYWGQGTQVTVSS”, the “polyreactivity (PSR sort gate)” value is “high polyreactivity”.

As for “QVQLVESGGGLDQAGGSLRLSCAASGSIFDANAMVWYRQAPGKERELVAAITSSGGITYYADSVKGRFTISRDNAKNTVYLHLNSLKPADTAVYYCAAEYGYIDYSYLYWYDYWGQGTQVTVSS”, the “polyreactivity (PSR sort gate)” value was “high polyreactivity”.

For “QVQLVESGGGLDQAGGSLRLSCAASGSIFEPNAMVWYRQAPGKERELVAAITGGGGTNYADSVKGRFTLSRDNAKYTVYLQMNSLKPEDTAVYYCAKEVDHGDASDMDYWGQGTQVTVSS”, the “polyreactivity (PSR sort gate)” value is on record as “low polyreactivity”.

On to “QVQLVESGGGLDQAGGSLRLSCAASGSIFFTYVMGWYRQAPGKERQLVAAISSDDITNYADSVKGRFTISRDNAKNTVYLQMNSLKPEDTAVYYCNADTTLYPYYDYGYYDYDYWGQGTQVTVSS”, for which the “polyreactivity (PSR sort gate)” value was “low polyreactivity”.

Consider “QVQLVESGGGLDQAGGSLRLSCAASGSIFKLNARGWYREAPGKERELVAAITSVGRTYYADSVKGRFTISRDNAKKTVYLQMNSLKPEDTAVYYCGAARYGVYWYGYWGQGTQVTVSS”, for which the “polyreactivity (PSR sort gate)” value is on record as “high polyreactivity”.

For “QVQLVESGGGLDQAGGSLRLSCAASGSIFNFYALGWYRQAPGKERELVAAISWSAGSTYYADSVKGRFTISRDYAKNTVYLQMNSLKPEDTAVYYCAADRYAYDWIQYYYHFLYDYWGQGTQVTVSS”, the “polyreactivity (PSR sort gate)” value is reported as “low polyreactivity”.

Turning to “QVQLVESGGGLDQAGGSLRLSCAASGSIFPFYAMGWYRQAPGKERELVAAISSRGGSTYYADSVKGRFTISRDNAKNTVYLQMNSLKPEDTAVYYCAARDYSIKVRLGYWGQGTHVTVSS”, the “polyreactivity (PSR sort gate)” value was “low polyreactivity”.

For the origin of these results see the nanobody polyreactivity screen of Harvey et al. (2022).
